Results published in patent US12590158 (XIYUAN ANJIAN MEDICINE SHANGHAI, dated 2026).
Changes are numbered by the printed parent chain.

B1: control antibody BXhVH5VL1 (antibody, V domains shown)
VH: EVKLLESGGGLVQPGGSLRLSCAASGFTFSTYTMSWVRQTPGKRLEWVAYISKGGGSTYYPDTVKGRFTISRDNSKNTLYLQMNSLRAEDTAVYYCARGAMYGNDFFYPMDYWGQGTTVTVSS
VL: EIVLTQSPATLSLSPGERATLSCSASSSVSYMHWYQQKPGQAPRLLIYTTSNLASGIPARFSGSGSGTDFTLTISSLEPEDFAVYYCHQWSSYPWTFGQGTKLEIK
B2: humanized anti-TrkA antibody 42F5-03 (antibody, V domains shown)
VH: QVQLVQSGAEVKKPGASVKVSCKSSGYTFTNYWMHWVRQAPGQGLEWIGEIYPNNGRVNYNEKFKNRATLTVDISISTAYMELSRLRSDDTAVYYCARSRYDPMEDWGQGTTVTVSS
VL: DVQLTQSPSSLSASVGDRVTITCSASSSVGYMHWYQQKPGKAPKRWIYDTSKLASGVPSRFSGSGSGTDYTLTISSLQPEDFATYFCQQWSSIPLTFGQGTRLEIK
notes: VH grafted to human IgG4 heavy chain constant region, VL to human Kappa light chain constant region
B3: humanized anti-TrkA antibody 42F5-11 (antibody, V domains shown)
VH: B2 VH
VL: EVVLTQSPATLSLSPGERATLSCSASSSVGYMHWYQQKPGQAPRRWIYDTSKLASGVPARFSGSGSGTDYTLTISSLEPEDAAVYFCQQWSSIPLTFGQGTRLEIK
notes: as for B2
B4: humanized anti-TrkA antibody 42F5-08 (antibody, V domains shown)
VH: B2 VH with A16S, I76T, R85S, D89E
VL: B2 VL with D1Q
notes: VH grafted to human IgG4 heavy chain constant region, VL to human Kappa light chain constant region; also called 43F5-08 [sic]
B5: humanized anti-TrkA antibody 42F5-13 (antibody, V domains shown)
VH: B2 VH with I48M, N55S, A68V, L70M
VL: B2 VL with W46L
notes: 42F5-01 with NG55-56 of the VH mutated to SG55-56
B6: humanized anti-TrkA antibody 42F5-14 (antibody, V domains shown)
VH: B2 VH with I48M, N55Q, A68V, L70M
VL: B2 VL with W46L
notes: 42F5-01 with NG55-56 of the VH mutated to QG55-56
B7: humanized anti-TrkA antibody 42F5-04 (antibody, V domains shown)
VH: B2 VH with A16S, I76T, R85S, D89E
VL: B2 VL
notes: as for B2

Target: full-length human TrkA expressed on cells (human) (UniProt P04629)
Assay: cell-based or functional assay

Chain of full-length human TrkA expressed on cells (human) (P04629 33-796): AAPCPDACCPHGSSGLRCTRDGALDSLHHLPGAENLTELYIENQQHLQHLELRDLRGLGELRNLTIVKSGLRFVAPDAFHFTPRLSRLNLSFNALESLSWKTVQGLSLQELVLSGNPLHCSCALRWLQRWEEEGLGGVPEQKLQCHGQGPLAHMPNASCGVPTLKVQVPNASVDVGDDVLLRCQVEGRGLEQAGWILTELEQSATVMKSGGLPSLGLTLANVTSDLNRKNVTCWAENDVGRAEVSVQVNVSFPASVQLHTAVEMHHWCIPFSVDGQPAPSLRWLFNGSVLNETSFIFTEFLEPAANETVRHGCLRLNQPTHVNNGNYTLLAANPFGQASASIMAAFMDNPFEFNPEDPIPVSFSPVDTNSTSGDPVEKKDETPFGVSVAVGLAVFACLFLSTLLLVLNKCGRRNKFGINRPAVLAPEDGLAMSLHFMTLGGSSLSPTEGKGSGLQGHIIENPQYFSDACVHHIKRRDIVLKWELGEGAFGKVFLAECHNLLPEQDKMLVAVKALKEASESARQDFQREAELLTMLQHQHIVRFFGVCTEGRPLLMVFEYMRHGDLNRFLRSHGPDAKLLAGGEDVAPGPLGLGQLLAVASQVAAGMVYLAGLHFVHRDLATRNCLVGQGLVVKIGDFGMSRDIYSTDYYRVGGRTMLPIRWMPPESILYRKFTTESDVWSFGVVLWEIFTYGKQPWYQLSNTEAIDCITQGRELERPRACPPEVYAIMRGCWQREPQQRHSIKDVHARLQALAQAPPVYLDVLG

Binder	IC50 of inhibiting NGF-induced TF-1 cell proliferation [nM]	IC50 of inhibiting NGF-induced TrkA/Ba/F3 cell proliferation [nM]	inhibition rate for TrkA/Ba/F3 cell proliferation at 40 µg/mL (266.67 nM) [%]	inhibition rate on NGF-induced TF-1 cell proliferation at 40 µg/mL (266.67 nM) [%]
B1	> 200	> 200	< 50	< 40

Target: T1, full-length human TrkA expressed on cells (human, UniProt P04629 33-796)
Assay: cell-based or functional assay

T1 sequence (P04629 33-796): as above

Binder	IC50 of inhibiting NGF-induced TF-1 cell proliferation [nM]
B2	1.43
B3	1.4
B4	1.65
B5	0.867
B6	1.94
B7	1.69

Target: T1, full-length human TrkA expressed on …
Assay: cell-based or functional assay
Remark: another data set of the same source

Binder	IC50 of inhibiting NGF-induced TrkA/Ba/F3 cell proliferation [nM]
B2	2.91
B3	2.81
B4	3.54
B5	3.31
B6	3.27
B7	3.69

Target: T2, human TrkB expressed on CHO cells (TrkB/CHO, ThermoFisher K1491) (human, UniProt Q16620 32-822)
T2 construct: whole, on cells
Assay: flow cytometry on TrkB/CHO cells
Method: (§1) CHO-K1 was used as a negative control. The binding of the humanized antibodies to the four cell lines was detected by flow cytometry.
(§2) The cells were cultured according to the manufacturer's instruction. The cells were harvested in the logarithmic growth phase, re-suspended in flow buffer (PBS+2% FBS, pH 7.4), and added into 96-well plate, 10^5 cells per well (50 µl). 50 µl of 100 µg/mL humanized anti-TrkA antibody was added, incubated at room temperature for 60 min, and centrifuged at 1200 rpm. The supernatant was discarded and the cells were washed 3 times. FITC-labeled goat anti-human Fc antibody (Abeam, ab97224) was diluted to 5 µg/mL with flow buffer and used to re-suspend the cells, incubated at room temperature for 30 min in the dark, centrifuged, and the supernatant was discarded. After washing 3 times, the cells were re-suspended with 7AAD solution (Biolegend, 420403), incubated for 10 min at room temperature, and the binding of the antibody was detected with a flow cytometer (BioRad, ZE5).

T2 sequence (Q16620 32-822): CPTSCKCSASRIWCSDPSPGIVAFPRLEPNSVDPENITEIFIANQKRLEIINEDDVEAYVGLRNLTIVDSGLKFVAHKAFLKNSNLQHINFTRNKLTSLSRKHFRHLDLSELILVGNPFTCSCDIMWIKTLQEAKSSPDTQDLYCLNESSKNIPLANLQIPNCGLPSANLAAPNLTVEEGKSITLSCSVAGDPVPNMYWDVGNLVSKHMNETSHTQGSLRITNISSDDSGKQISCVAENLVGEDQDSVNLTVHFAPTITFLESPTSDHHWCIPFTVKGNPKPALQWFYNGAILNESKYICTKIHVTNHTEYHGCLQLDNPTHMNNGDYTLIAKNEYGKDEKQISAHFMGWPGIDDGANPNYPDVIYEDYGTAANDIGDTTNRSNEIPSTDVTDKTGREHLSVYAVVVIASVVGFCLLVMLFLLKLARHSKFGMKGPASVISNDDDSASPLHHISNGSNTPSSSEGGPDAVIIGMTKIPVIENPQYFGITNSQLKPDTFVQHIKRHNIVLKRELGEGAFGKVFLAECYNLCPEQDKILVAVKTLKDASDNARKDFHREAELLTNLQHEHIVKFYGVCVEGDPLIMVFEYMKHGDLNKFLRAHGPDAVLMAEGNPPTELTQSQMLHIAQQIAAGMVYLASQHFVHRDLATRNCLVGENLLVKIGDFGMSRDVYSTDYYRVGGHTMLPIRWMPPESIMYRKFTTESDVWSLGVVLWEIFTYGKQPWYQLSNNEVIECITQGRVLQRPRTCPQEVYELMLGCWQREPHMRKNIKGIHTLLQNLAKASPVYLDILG

Binder	binding result
B2	no binding (tested: 50 µl of 100 µg/mL)
B7	no binding (tested: 50 µl of 100 µg/mL)

Target: T3, human TrkC expressed on CHO cells (TrkC/CHO, ThermoFisher K1515) (human, UniProt Q16288 32-839)
T3 construct: whole, on cells
Assay: flow cytometry on TrkC/CHO cells
Method: as §1, §2

T3 sequence (Q16288 32-839): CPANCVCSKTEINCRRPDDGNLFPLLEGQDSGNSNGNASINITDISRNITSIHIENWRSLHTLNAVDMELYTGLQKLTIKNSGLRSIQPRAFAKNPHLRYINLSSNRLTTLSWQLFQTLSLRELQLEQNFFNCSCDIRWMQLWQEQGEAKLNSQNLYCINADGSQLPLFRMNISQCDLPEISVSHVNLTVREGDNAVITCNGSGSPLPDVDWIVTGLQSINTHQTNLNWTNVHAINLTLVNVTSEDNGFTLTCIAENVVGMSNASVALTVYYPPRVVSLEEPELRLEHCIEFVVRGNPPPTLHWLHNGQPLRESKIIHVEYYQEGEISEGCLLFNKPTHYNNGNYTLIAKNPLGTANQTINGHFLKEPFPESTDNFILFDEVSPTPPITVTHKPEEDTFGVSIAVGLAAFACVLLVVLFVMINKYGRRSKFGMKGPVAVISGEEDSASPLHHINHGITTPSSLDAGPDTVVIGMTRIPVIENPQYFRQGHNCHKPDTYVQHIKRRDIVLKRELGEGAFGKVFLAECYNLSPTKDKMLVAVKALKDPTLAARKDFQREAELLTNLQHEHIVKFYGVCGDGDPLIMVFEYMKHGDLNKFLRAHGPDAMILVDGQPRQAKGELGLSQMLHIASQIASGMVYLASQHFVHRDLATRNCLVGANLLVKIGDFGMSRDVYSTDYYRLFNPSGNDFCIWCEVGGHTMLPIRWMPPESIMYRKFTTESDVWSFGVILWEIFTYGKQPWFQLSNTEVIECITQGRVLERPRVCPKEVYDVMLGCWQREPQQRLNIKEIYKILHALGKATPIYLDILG

Binder	binding result
B2	no binding (tested: 50 µl of 100 µg/mL)
B7	no binding (tested: 50 µl of 100 µg/mL)

Target: T1, full-length human TrkA expressed on …
Assay: flow cytometry titration on TrkA/CHO cells
Method: as §2
The binding curve of the humanized anti-TrkA antibodies and TrkA/CHO cells was detected with the same flow cytometry.

Binder	EC50 [nM]
B3	0.513
B4	0.535
B5	0.518
B6	0.547

Target: T4, human TrkA extracellular region (33-417) protein containing mouse Fc (human, UniProt P04629 33-417)
T4 construct: range 33-417
Assay: ELISA, coated human TrkA (33-417)-mouse Fc, anti-human IgG-HRP
Method: Each well of a 96-well microtiter plate was coated with 50 ng of human TrkA, washed and blocked, then added with serially diluted humanized antibodies, and incubated for 1 hour at room temperature. After washing three times, horseradish peroxidase-conjugated goat anti-human IgG antibody (ThermoFisher, A18817) was added and reacted at room temperature for 1 hour. After washing three time, tetramethylbenzidine (TMB, Biolegend) was added for color development. 1M HCl was used to terminate the color development, and the absorbance values were read at 450 nm with a microplate reader.

T4 sequence (P04629 33-417 limits assumed): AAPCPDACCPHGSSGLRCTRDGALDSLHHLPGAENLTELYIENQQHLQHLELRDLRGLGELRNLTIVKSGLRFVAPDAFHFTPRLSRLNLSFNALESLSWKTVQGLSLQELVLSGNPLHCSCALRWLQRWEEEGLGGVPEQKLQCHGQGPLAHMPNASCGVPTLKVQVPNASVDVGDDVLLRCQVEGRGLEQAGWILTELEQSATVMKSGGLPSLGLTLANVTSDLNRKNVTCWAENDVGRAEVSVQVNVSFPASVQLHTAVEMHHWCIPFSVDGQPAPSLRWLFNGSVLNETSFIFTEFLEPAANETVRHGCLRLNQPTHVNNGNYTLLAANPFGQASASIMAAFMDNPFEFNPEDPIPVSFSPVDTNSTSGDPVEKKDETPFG

Binder	EC50 [nM]
B2	0.056
B3	0.05
B4	0.055
B5	0.087
B6	0.071
B7	0.07

Target: T2, human TrkB expressed on CHO cells …
Assay: flow cytometry on TrkB/CHO cells, FITC goat anti-human Fc
Method: as §1, §2

Binder	binding result
B3	no binding
B4	no binding
B5	no binding
B6	no binding

Target: T3, human TrkC expressed on CHO cells …
Assay: flow cytometry on TrkC/CHO cells, FITC goat anti-human Fc
Method: as §1, §2

Binder	binding result
B3	no binding
B4	no binding
B5	no binding
B6	no binding

Target: T5, TrkA extracellular region (33-417) protein comprising human Fc (ACROBiosystems TRA-H5259) (human, UniProt P04629 33-417)
T5 construct: range 33-417; Bought fusion protein; also called human TrkA (33-417); human TrkA extracellular region
Assay: competition ELISA, coated TrkA (33-417)-hFc, antibody titrated, competitor biotin-labeled human NGF
Method: Each well of a 96-well microtiter plate was coated with 50 ng of TrkA extracellular region (33-417) protein fused to human Fc, washed three times and blocked with 3% BSA for 1 hour. […] Each well was added with 100 μl and incubated at room temperature for 30 minutes. […] Streptavidin-labeled horseradish peroxidase (Streptavidin-HRP, Biolegend, 405210) was added and incubated for 0.5 hours. After washing three times, TMB was added to the plate, and the absorbance at 450 nm was read by a microplate reader after the color development was terminated.

T5 sequence (P04629 33-417 limits assumed): as above

Binder	IC50 [nM]
B1	> 100
